Paper PMC3409459, “Absorption, distribution, metabolism and excretion of peginesatide, a novel erythropoiesis-stimulating agent, in rats” (Xenobiotica; the Fate of Foreign Compounds in Biological …, 2011)

Test: Radioactivity in plasma, skin and eyes of pigmented vs albino rats (affinity for melanin)
Format: in vivo, male Long Evans (pigmented) rats
Details: single IV 5 mg·kg^−1 [^14C]-peginesatide; through 60 days; LSC; n=3 per time point
Procedure: Male Sprague-Dawley (albino) rats (n = 21; three per time point) were administered a single IV dose of 5 mg·kg^−1 [^14C]-peginesatide (27.5 μCi/kg) and tissue concentrations of radioactivity determined at 0.25, 6, and 24 h, and 7,14,30 and 60 days following dosing. Similarly, male Long Evans (pigmented) rats (n = 21; three per time point) were administered a single IV dose of 5 mg-kg^−1 [^14C]-peginesatide and plasma, skin, and eye concentrations of radioactivity were measured at the various time points through 60 days after dosing. At each time point, blood was collected, the animals sacrificed, and tissues excised. Tissues collected from the Sprague-Dawley rats included blood, plasma, adrenals, bone marrow, brain, eyes, fat, femur, Harderian glands, heart, hypophysis, intestine, kidneys, lungs, liver, pancreas, skeletal muscle, skin, spinal cord, spleen, stomach, submaxillary glands, testes, thymus, thyroid gland, and urinary bladder. Plasma, eyes, non-pigmented skin, and pigmented skin were collected from Long Evans rats. All tissue samples were measured for radioactivity by LSC following combustion. […] The concentration of radioactivity in the blood, plasma, and tissues was calculated and expressed as ug equiv·g^-1 or mLbased on the LSC counts and the specific activity of the dosing solution.

For Peginesatide, the “association with melanin (kinetics in plasma, skin and eyes of pigmented vs non-pigmented rats)” value was “neither peginesatide nor the other radioactive components associated with melanin”.
